In publication PMC4970707:

Columns and labels:
[1] = target: NprR(ΔHTH)(Y223A/F225A) (Bacillus thuringiensis (strain 407)); assay: crystal structure; NprR(ΔHTH)(Y223A/F225A) alone, crystallized at 18°C in 1.0 M Na citrate, 0.1 M Hepes pH 7.6; 3.25 Å, space group P 21 21 21, 2 molecules per asymmetric unit
[2] = target: NprR from B. thuringiensis strain 407 (NprR-6His) (Bacillus thuringiensis (strain 407)); assay: MST; 33 nM NprR labelled with NT-495-NHS; Bt Spo0F serially diluted from about 260 μM to 8 nM; 5% glycerol in MST buffer (50 mM Tris-HCl pH 7.4, 150 mM NaCl, 10 mM MgCl2, 0.05% Tween-20); 20% LED power, 40% IR-laser power; absence of NprX; apparent Kd

With “NprR(ΔHTH)(Y223A/F225A) (domain or fragment)” the stoichiometry N [1] was 2.

B1: Spo0F from B. thuringiensis (6His-Spo0F) (natural protein)
chain: MEGKILIVDDQYGIRVLLHEVFQKEGYQTFQAANGFQALDIVKKDNPDLVVLDMKIPGMDGIEIFKACKEIDESIKVILMSAYGELDMIQEAKDLGALMHFAKPFDIDEIRQAVRNELAVEA
B1 gave a Kd [2] of 5 µM.
